We go through 12 molecules from US20190218296A1 (APEXIGEN, published 2019).

Test [1] concerns the target T1, recombinant human PD-L1 (human, UniProt Q9NZQ7 19-238, limits assumed).
T1 construct: also called PD-L1 protein
Kind of test: ELISA on human PD-L1, OD 650 nm.

The target of test [2] is T2, recombinant cynomolgus monkey PD-L1 (cynomolgus monkey, UniProt G7PSE7 19-238).
T2 construct: also called cynomolgus macaque PD-L1
Kind of test: direct ELISA on plate-coated recombinant cynomolgus monkey PD-L1; anti-human Fc-HRP, TMB, OD 650 nm. As to the method: (§1) To assess specificity of the selected clones, a direct ELISA for human and cynomolgus monkey PD-L1 was performed. ELISA plates were coated with recombinant human or cynomolgus monkey PD-L1. […] Serial dilutions of chimeric anti-PD-L1 antibodies were added, and a secondary HRP-conjugated, anti-human Fc-specific antibody was added. After washing, TMB substrate was added and plates were read at OD 650 nm.

Test [3] deals with T3, human PD-L1-his (Sino Biologics) (human, UniProt Q9NZQ7 19-238).
T3 construct: Bought from Sino Biologics; not shown: his tag
T3 sequence (Q9NZQ7 19-238 limits assumed): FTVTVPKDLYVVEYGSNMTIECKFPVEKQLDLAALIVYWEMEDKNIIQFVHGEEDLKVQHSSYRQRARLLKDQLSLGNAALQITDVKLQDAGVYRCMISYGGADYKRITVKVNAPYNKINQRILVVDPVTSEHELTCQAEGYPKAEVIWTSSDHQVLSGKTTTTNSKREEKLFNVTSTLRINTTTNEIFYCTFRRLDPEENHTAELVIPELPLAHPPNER
Kind of test: competition ELISA: human PD-L1-his coated at 1 µg/ml, antibody dilutions, then human PD-1-mouse-Fc at 1 µg/ml, anti-mouse IgG-HRP, OD 650 nm. As to the method: Plates were coated with 100 μl of 1 μg/ml human PD-L1-his (Sino Biologics, Beijing, China) in carbonate-bicarbonate buffer overnight. After washing, plates were blocked with PBS 0.05% Tween-20 for 1 hour, and serial dilutions of anti-PD-L1 human chimeric antibody or IgG1 isotype control antibody was added. […] After washing, goat anti-mouse IgG (H+L)-HRP antibody (Jackson ImmunoResearch West Grove, Pa.) and plates were further incubated for 1 hour. After washing, TMB substrate (SurModics, Eden Prairie, Minn.) was added. The reaction was stopped using stop solution (SurModics) and plates were read at OD=650 nanometer.

Test [4] addresses T4, human PD-L1 on cells (human, UniProt Q9NZQ7 19-290).
T4 construct: whole, on cells; also called HEK-PD-L1 cells; PD-L1-expressing HEK 293 cells
Kind of test: flow cytometry on CD4 T cells activated with anti-CD3; MFI; column head prints only EC50, unit taken from the axis Antibody Concentration (nM).

Test [5] has as its target T4, human PD-L1 on cells. As to the kind of experiment: flow cytometry on activated CD4 T cells, MFI.
In test [6] the target is T4, human PD-L1 on cells. As to the kind of experiment: flow cytometry on monocyte-derived dendritic cells, MFI.
Test [7] concerns the target T4, human PD-L1 on cells. As to the kind of experiment: flow cytometry on monocyte-derived dendritic cells; PE anti-human Fc, MFI. As to the method:
The chimeric PD-L1 antibodies were further assessed for their ability to bind to human myeloid-derived dendritic cells. CD14 monocytes were isolated from PBMC using directly conjugated magnetic beads (Miltenyi) and cultured for 7 days in the presence of GM-CSF (100 ng/ml) and IL-4 (50 ng/ml) (Peprotech) to generate myeloid dendritic cells (mDC). mDC were added to 96-well plates (100,000 cells/well) and serial dilution of anti-PD-L1 antibodies or IgG1 isotype control antibody was added in duplicates and plates were incubated for 30 min on ice. After washing, a PE-conjugated donkey anti-human Fc specific antibody (Jackson Immunoresearch, 1:200 dilution) was added and plates were further incubated for 15 minutes on ice. After washing, cells were analyzed using a MACS quant flow cytometer.

In test [8] the target is T4, human PD-L1 on cells. Kind of test: flow cytometry on activated CD4 T cells, saturation fit on a linear axis.
For test [9], the target named is T4, human PD-L1 on cells. Kind of test: flow cytometry on human PD-L1 transfected HEK 293 cells; PE anti-human Fc, MFI. As to the method: Stable human PD-L1 transfected HEK 293 cells (Crown Bio, San Diego, Calif.) were added to 96-well plates (100,000 cells/well) and serial dilution of anti-PD-L1 antibodies or IgG1 isotype control antibody was added in duplicates and plates were incubated for 30 minutes on ice. After washing, a PE-conjugated donkey anti-human Fc specific antibody (Jackson Immunoresearch, West Grove, Pa. 1:200 dilution) was added and plates were further incubated for 15 minutes on ice. After washing, cells were analyzed using a MACS quant flow cytometer.

Test [10] has as its target T4, human PD-L1 on cells. Kind of test: flow cytometry on monocyte-derived dendritic cells, saturation fit on a linear axis.
The target in test [11] is T1, recombinant human PD-L1. As to the kind of experiment: direct ELISA on plate-coated recombinant human PD-L1; anti-human Fc-HRP, TMB, OD 650 nm. As to the method: as §1
The target in test [12] is T1, recombinant human PD-L1. Kind of test: competition ELISA: PD-L1 coated, serial dilutions of the antibody, then biotinylated Atezolizumab at 1 µg/ml, streptavidin-HRP, OD 650 nm.
The target in test [13] is T4, human PD-L1 on cells. Kind of test: flow cytometry on HEK PD-L1 cells, MFI.
The target in test [14] is T4, human PD-L1 on cells. Kind of test: flow cytometry on HEK-PD-L1 cells; PE anti-human Fc, MFI.
For test [15], the target named is T4, human PD-L1 on cells. Kind of test: flow cytometry on HEK PD-L1 cells, saturation fit on a linear axis.
Test [16] addresses T4, human PD-L1 on cells. As to the kind of experiment: flow cytometry on HEK-PD-L1 cells, saturation fit on a linear axis; column head prints only Kd, unit taken from the axis Ab (nM).

Where a chain is given by its changes, count along the chain named.

T4 sequence (Q9NZQ7 19-290): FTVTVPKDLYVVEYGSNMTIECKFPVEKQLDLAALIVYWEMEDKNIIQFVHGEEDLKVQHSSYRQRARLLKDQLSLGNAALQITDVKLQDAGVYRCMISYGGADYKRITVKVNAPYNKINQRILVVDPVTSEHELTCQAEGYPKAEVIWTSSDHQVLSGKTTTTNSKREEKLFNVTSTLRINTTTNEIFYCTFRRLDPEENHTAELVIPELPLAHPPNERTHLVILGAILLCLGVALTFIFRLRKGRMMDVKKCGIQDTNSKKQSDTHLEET
T1 sequence (Q9NZQ7 19-238 limits assumed): as the sequence (Q9NZQ7 19-238 limits assumed) above
T2 sequence (G7PSE7 entry or part of it limits assumed): as the sequence (Q9NZQ7 19-238 limits assumed) above, with A33T, A34S, S62N, R68Q, Q82R, F173L, T185A, T192I, H215L counted along it

B1: h9A9-HZD1 (antibody, V domains shown)
VH: EVQLVESGGGLVQPGGSLRLSCAASGIDLSGYWMSWVRQAPGKGLEWVGIVDNDGSAYYASWVNGRFTISRDNSKNTLYLQMNSLRAEDTAVYYCARQSGDWTFDLWGQGTLVTVSS
VL: DIQMTQSPSTLSASVGDRVTITCQASQSIGRWLSWYQQKPGKAPKLLIYQASKLASGVPSRFSGSGSGTEFTLTISSLQPDDFATYYCQNNYDIIAYGNAFGGGTKVEIK
notes: also called humanized 9A9 HZD1
On to B1, for which the EC50 in the test with recombinant human PD-L1 [1] amounted to 0.0159 µg/mL.

B2: h9A9-HZD2 (antibody, V domains shown)
VH: B1 VH with I27F, L29V
VL: B1 VL
notes: also called humanized 9A9 HZD2
Regarding B2, the concentration giving a half-maximal response (EC50) with recombinant human PD-L1 [1] stood at 0.0126 µg/mL.

B3: chimeric anti-PD-L1 antibody 27H2 (antibody, human IgG1, V domains shown)
VH: QSLEESGGDLVKPGASLTLTCTASGFSFSSGDYMCWVRQAPGKGLEGIACIYGGSSGSTYYANWAKGRFTISKTSSTTVTLQMTSLAAADTATYFCARDFRDVGYGYASFRLWGPGILVTVSS
VL: DIVMTQTPASVSEPVGGTVTIKCQASQSISSWLSWYQQKPGQPPKLLIYGASNLESGVSSRFKGSGSGTEYTLTISDLECADAATYYCQSNYGSSSSSLNAFGGGTEVVVK
Consider B3, for which the binding result in test [2] is recorded as “no binding (tested: 1000 ng/ml)”. Also, the “IC50 (read off the curve)” value in test [3] was around 0.02 µg/mL. This molecule registered an EC50 in the test with human PD-L1 on cells [4] of 750 pM.

B4: chimeric anti-PD-L1 antibody 15E9 (antibody, human IgG1, V domains shown)
VH: QSVEESGGRLVTPGTPLTLTCTVSGFDISNYWMSWVRQAPGKGLEYIGIISTGGNTWYASWVKGRFTISKTSTTVDLKMTSLTTEDTATYFCVRVVIYGGTTSSFNLWGPGTLVTVSS
VL: QVLTQTASPVSAAVGGTVTINCQSSQNVYNKIRLSWFQQKSGQPPKELIYAASSLASGVPSRFKGSGSGTEFTLTISDLECDDAATYYCQGGYSGPIYAFGGGTEVVVK
As for B4, the concentration giving a half-maximal response (EC50) is 0.0138 µg/mL with recombinant human PD-L1 [1]; 756 pM with human PD-L1 on cells [5]; 900 pM with human PD-L1 on cells [6]; 1100 pM with human PD-L1 on cells [7]; 580 pM in the test with human PD-L1 on cells [9]. Also, the Kd with human PD-L1 on cells [8] stood at 26 pM; in the test with human PD-L1 on cells [10], 420 pM. Moreover, the “EC50 (read off the curve)” value with recombinant human PD-L1 [11] is around 0.004 µg/mL. The binding result in test [2] is given as “no binding (tested: 1000 ng/ml)”.

B5: chimeric anti-PD-L1 antibody 23D12 (antibody, human IgG1, V domains shown)
VH: QSVEESGGRLVTPGTPLTLTCTVSGFSLSNYVMGWVRQAPGKGLEYIGIISNSDNTYYATWATGRFTISKTSTTVDLKMTSLTTEDTATYFCARVDTYYNDFNLWGPGTLVTVSS
VL: QVLTQTPSSVEAAVGGTVTIKCQASEDIERYLAWYQQKPGQPPKQLIYDASKLASGVSSRFKGSGSGTEFTLTISGVQCDDAATYYCQHGYIYSSGNPFGGGTEVVVK
As to B5, the figures for the EC50 with human PD-L1 on cells [7] and in the test with human PD-L1 on cells [4] were 1700 pM and 1300 pM, respectively. Besides, the “EC50 (read off the curve)” value with recombinant human PD-L1 [11] is around 0.007 µg/mL; in test [2], around 0.006 µg/mL.

B6: h51D5_HZD1 (antibody, V domains shown)
VH: EVQLVESGGGLVQPGGSLRLSCAASGFSLSSYWMSWVRRAPGKGLEWVGYINGGSGNPYYASWAKGRFTISRDNSKNTLYLQMNSLRAEDTAVYYCARGGESDDYVYGRYGLDPWGQGTLVTVSS
VL: DIQMTQSPSTLSASVGDRVTITCQASQSISSWLSWYQQKPGKAPKLLIYDASKLASGVPSRFSGSGSGTEFTLTISSLQPDDFATYYCQQDYSSYNVDNTFGGGTKVEIK
notes: also called humanized 51D5 HZD1
Regarding B6, the EC50 with recombinant human PD-L1 [1] stood at 0.0156 µg/mL.

B7: h51D5_HZD2 (antibody, V domains shown)
VH: B6 VH with R39Q
VL: B6 VL
notes: also called humanized 51D5 HZD2
Regarding B7, the EC50 with recombinant human PD-L1 [1] came out at 0.0169 µg/mL.

B8: h15E9_HZD1 (antibody, V domains shown)
VH: EVQLVESGGGLVQPGGSLRLSCAASGFDISNYWMSWVRQAPGKGLEWVGIISTGGNTWYASWVKGRFTISRDNSKNTLYLQMNSLRAEDTAVYYCARVVIYGGTTSSFNLWGQGTLVTVSS
VL: DIQMTQSPSSLSASVGDRVTITCQSSQNVYNKIRLSWYQQKPGKAPKELIYAASSLASGVPSRFSGSGSGTEFTLTISSLQPEDFATYYCQGGYSGPIYAFGGGTKVEIK
notes: also called humanized 15E9 HZD1
B8: the concentration giving a half-maximal response (EC50) with recombinant human PD-L1 [1] is 0.267 µg/mL.

B9: h15E9_HZD2 (antibody, V domains shown)
VH: B8 VH
VL: B8 VL with E48R
notes: also called humanized 15E9 HZD2
On to B9, for which, in the test with recombinant human PD-L1 [1], the EC50 came to 1.62 µg/mL.

B10: chimeric anti-PD-L1 antibody 43G2 (antibody, human IgG1, V domains shown)
VH: QSVEESGGRLVTPGTPLTLTCTVSGFSLSSYAMGWVRQAPGEGLEYIGFIDTHGSAYYATWAKGRFTISRTSTTVDLKITSPTTEDTATYFCARNVWTNAGYFNLWGPGTLVTVSS
VL: DVVMTQTPSSVSAAVGGTVTIKCQASQNIYTNLAWYQQKPGQPPKLLIYSASTLASGVPSRFKGSGSGTQFTLTISDLECADAATYYCQTYGALIINGGAFGGGTEVVVK
For B10, the values for the concentration for a half-maximal effect (EC50) in the test with human PD-L1 on cells [7] and with human PD-L1 on cells [4] were 1600 pM and 7700 pM, respectively. The 50% effective concentration (EC50 (read off the curve)) with recombinant human PD-L1 [11] is around 0.006 µg/mL; in test [2], around 0.005 µg/mL.

B11: chimeric anti-PD-L1 antibody 11B11 (antibody, human IgG1, V domains shown)
VH: QSVEESGGRLVTPGGTLTLTCTASGFSLSNYTMAWVRQAAGKGLEWIGYINTGGSPYYASWAKGRFTISRSSTTVDLKMTSLTTEDTATYFCARNVDGAWNYLNLWGPGTLVTVSS
VL: AYDMTQTPASVEVVVGGTVTIKCQASETINTYLSWYQQKPGQRPRLLIYAASNLASGVPSRFSGSGSGTEFTLTISGVQCADAATYYCQQGINSNVGNTFGGGTEVVVK
B11: in the test with recombinant human PD-L1 [12], the binding result was “binds”.

B12: chimeric anti-PD-L1 antibody 51D5 (antibody, human IgG1, V domains shown)
VH: QSVEESGGRLVTPGTPLTLTCIVSGFSLSSYWMSWVRRAPGKGLEWIGYINGGSGNPYYASWAKGRFTISKTSTTVDLKITSPTTEDTATYFCARGGESDDYVYGRYGLDPWGPGTLVTVSS
VL: AYDMTQTPASVSEPVGGTVTIKCQASQSISSWLSWYQQKPGQPPKLLIYDASKLASGVPSRFSGSGSGTQFTLTISDLECDDAATYYCQQDYSSYNVDNTFGGGTEVVVK
notes: also called chimeric 51D5; c51D5
As to B12, the EC50 was 0.0117 µg/mL in the test with recombinant human PD-L1 [1], 320 pM with human PD-L1 on cells [13], 1030 pM in the test with human PD-L1 on cells [5] and 1120 pM with human PD-L1 on cells [6]. The “EC50 (read off the curve)” value with human PD-L1 on cells [14] was around 1000 pM. Besides, the Kd was 160 pM with human PD-L1 on cells [15], 25 pM in the test with human PD-L1 on cells [8], 500 pM in the test with human PD-L1 on cells [10] and 910 pM with human PD-L1 on cells [16]. In addition, the “IC50 (read off the curve)” value in [3] was around 0.2 µg/mL.
